# Data reported in paper PMC6834639.
# T1: WT Aβ (1–10)
# T1 chain: DAEFRHDSGY
# Biological target: T1, WT Aβ (1–10)
# Assay: native MS; IM-MS of oligomers of one Aβ fragment alone; Aβ (1–10) and Aβ (1–16) 600 µM, 10 mM NH4OAc; oligomers of many sizes seen, a printed size is the largest one
# Details: remark: other sources report otherwise
binder,measurement,value
DAEFRHDSGY [WT Aβ (1–10)],stoichiometry N,19
